The target of this experiment is T1, human Ptch-2 (SEQ ID NO:2), overexpressed on transfected human 293 embryonic kidney cells (human, UniProt Q9Y6C5 1-1203).
T1 construct: also called Patched-2; patched-2
T1 sequence: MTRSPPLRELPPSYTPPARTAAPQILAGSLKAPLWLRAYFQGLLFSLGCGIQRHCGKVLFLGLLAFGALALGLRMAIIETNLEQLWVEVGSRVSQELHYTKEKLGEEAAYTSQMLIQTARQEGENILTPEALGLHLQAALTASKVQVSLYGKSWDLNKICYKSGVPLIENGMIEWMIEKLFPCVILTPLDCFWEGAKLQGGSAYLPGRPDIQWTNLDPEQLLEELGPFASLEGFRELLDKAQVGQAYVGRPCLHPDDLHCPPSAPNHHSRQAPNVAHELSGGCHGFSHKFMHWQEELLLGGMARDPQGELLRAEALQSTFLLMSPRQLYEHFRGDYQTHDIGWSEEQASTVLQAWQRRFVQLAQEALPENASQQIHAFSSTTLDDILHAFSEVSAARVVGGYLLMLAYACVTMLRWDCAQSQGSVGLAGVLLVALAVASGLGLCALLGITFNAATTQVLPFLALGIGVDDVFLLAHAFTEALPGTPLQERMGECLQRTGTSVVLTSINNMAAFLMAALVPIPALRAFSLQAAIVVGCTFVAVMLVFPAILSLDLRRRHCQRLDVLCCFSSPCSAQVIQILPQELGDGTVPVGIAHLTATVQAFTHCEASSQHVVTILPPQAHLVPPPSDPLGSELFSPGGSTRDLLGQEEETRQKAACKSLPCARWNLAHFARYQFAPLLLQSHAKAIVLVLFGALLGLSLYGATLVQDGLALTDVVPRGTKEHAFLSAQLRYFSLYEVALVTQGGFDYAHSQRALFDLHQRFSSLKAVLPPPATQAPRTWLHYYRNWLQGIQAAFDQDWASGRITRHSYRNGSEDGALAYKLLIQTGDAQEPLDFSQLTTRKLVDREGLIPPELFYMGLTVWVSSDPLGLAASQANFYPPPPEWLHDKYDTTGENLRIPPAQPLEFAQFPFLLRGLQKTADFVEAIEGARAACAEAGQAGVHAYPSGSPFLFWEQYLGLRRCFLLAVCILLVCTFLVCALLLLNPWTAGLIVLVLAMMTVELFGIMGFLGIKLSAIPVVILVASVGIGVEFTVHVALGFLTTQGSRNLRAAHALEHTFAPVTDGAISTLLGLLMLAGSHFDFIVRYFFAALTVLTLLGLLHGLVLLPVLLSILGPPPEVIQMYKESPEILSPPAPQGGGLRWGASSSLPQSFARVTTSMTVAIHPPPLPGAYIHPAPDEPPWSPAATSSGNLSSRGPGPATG
Nature of the experiment: Scatchard analysis of 125I-Shh displacement curves, 293 cells expressing Ptch-2.

B1: Dhh (SEQ ID NO:13) (ligand)
chain: not shown
notes: also called Desert Hh; Desert hedgehog
The term Kd denotes the concentration at which binding is half-saturated. Low values mean a tighter complex, high ones a looser complex. In the case of B1, the Kd was 600 pM.

B2: Ihh (SEQ ID NO:29) (ligand)
chain: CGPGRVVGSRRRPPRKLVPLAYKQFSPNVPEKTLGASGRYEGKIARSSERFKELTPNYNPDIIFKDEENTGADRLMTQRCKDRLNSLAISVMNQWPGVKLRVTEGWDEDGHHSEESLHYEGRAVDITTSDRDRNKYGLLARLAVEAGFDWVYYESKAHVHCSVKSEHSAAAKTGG
notes: also called Indian Hh
For B2, the dissociation constant Kd is 400 pM.

The record behind these values is patent US6709838 (Genentech, dated 2004).
